# Measurements: US20220339183
# B1: constitutively active p38γ (p38γ^CA; p38γ Asp179Ala), HA-tagged (protein)
# chain: MSSPPPARSGFYRQEVTKTAWEVRAVYRDLQPVGSGAYGAVCSAVDGRTGAKVAIKKLYRPFQSELFAKRAYRELRLLKHMRHENVIGLLDVFTPDETLDDFMDFYLVMPFMGTDLGKLMKHEKLGEDRIQFLVYQMLKGLRDLKPGNLAVNEDCELKILDFGLARQAASEMTGYVVTRWYRAPEVILNWMRYTQTVDIWSVGCIMAEMITGKTLFKGSDHLDQLKEIMKVTGTPPAEFVQRLQSDEAKNYMKGLPELEKKDFASILTNASPLAVNLLEKMLVLDAEQRVTAGEALAHPYFESLHDTEDEPQVQKYDDSFDDVDRTLDEWKRVTYKEVLSFKPPRQLGARVSKETPL
# B2: endogenous mouse p38γ (protein)
# chain: MSSPPPARKGFYRQEVTKTAWEVRAVYQDLQPVGSGAYGAVCSAVDSRTGNKVAIKKLYRPFQSELFAKRAYRELRLLKHMRHENVIGLLDVFTPDESLDDFTDFYLVMPFMGTDLGKLMKHETLSEDRIQFLVYQMLKGLKYIHAAGVIHRDLKPGNLAVNEDCELKILDFGLARQADSEMTGYVVTRWYRAPEVILNWMRYTQTVDIWSVGCIMAEMITGKILFKGNDHLDQLKEIMKITGTPPPEFVQKLQSAEAKNYMEGLPELEKKDFASVLTNASPQAVNLLERMLVLDAEQRVTAAEALTHPYFESLRDTEDEPKAQKYDDSFDDVDRTLEEWKRVTYKEVLSFKPPRQLGARVPKETAL
# Molecular target: human non-mutant tau (transgene of Alz17 mice), P10636
# Sequence (P10636 whole entry, looked up, change not shown): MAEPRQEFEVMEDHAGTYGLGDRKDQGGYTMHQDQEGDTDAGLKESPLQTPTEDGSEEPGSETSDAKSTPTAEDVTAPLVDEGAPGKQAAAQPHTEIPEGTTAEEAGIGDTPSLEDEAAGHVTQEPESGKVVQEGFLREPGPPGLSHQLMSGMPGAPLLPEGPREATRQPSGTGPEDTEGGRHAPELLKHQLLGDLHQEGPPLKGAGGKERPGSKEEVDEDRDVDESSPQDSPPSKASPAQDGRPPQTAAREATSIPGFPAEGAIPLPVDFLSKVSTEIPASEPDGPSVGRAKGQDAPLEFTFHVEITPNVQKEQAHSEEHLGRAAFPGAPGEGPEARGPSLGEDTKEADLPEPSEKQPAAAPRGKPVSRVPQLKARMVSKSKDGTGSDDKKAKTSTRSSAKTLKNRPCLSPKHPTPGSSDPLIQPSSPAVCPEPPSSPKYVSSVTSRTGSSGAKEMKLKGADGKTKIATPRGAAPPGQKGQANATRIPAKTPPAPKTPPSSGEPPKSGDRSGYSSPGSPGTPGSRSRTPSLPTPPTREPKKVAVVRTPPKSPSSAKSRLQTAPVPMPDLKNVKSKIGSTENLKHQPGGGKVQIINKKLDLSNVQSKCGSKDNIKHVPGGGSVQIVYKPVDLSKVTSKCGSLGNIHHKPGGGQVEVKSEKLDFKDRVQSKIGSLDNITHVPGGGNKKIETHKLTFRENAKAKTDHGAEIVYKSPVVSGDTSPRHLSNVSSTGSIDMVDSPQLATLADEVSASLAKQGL
protein,measurement,value
B1,Immunofluorescence staining of brains with antibodies to tau and tau phosphorylated at T205,increased T205 tau phosphorylation in Alz17.p38γ^CA mice compared with Alz17 mice
same,Western blotting of synaptosome preparations from mouse brains for pT205 tau,increased phosphorylation of tau at T205 in the post-synapse of Alz17.p38γ^CA mice as compared with Alz17.p38γ^+/+ controls
B2,Western blotting of synaptosome preparations from mouse brains for pT205 tau,phosphorylation of tau at T205 was no longer detectable in Alz17.p38γ^-/- mice that also lacked p38γ in their post-synapses
